Assay results published in article PMC8076310.

T1: Fc-GDF15 WT (knob-Fc-(G4S)5-GDF15 paired with hole-Fc, wildtype GDF15) (human) (UniProt Q99988)
T1 sequence (Q99988 whole entry, looked up): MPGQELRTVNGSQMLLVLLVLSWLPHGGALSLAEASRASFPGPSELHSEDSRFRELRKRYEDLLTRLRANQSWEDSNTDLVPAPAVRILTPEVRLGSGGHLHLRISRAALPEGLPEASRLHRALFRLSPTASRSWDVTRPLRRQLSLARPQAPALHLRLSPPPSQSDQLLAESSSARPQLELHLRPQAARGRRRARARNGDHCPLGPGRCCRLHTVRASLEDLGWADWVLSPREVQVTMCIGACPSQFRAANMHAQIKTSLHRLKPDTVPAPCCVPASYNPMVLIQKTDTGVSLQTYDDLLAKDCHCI

T2: Fc-GDF15 WT (wildtype Fc-GDF15 control; knob-Fc-(G4S)5-GDF15 paired with hole-Fc) (human) (UniProt Q99988)
T2 sequence (Q99988 whole entry, looked up): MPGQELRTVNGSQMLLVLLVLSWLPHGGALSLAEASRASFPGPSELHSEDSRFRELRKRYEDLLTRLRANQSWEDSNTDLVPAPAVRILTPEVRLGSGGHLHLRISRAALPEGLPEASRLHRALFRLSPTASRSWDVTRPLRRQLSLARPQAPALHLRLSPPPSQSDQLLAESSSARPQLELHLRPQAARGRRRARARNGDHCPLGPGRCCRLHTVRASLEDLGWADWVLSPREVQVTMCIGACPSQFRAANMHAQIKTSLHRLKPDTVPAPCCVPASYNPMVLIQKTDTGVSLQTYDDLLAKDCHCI


Tests used:
[1] = target: Fc-GDF15 Mutant 2C (A3N/N5T/V98I) (human); assay: SPR; Biacore T200, 37 °C; Fc-GDF15 captured on anti-human IgG on a CM4 chip; GFRAL injected as analyte, two-fold series 25-1.56 nM (human) or 100-6.25 nM (murine), 60 s association, 120 s dissociation; 1:1 Langmuir model; duplicate
[2] = target: Fc-GDF15 Mutant 3B (R4N/G6T/L36R) (human); assay: as above
[3] = target: Fc-GDF15 Mutant 3A (R4N/G6T/L36H) (human); assay: as above
[4] = target: Fc-GDF15 Mutant 3C (R4N/G6T/V98I) (human); assay: as above
[5] = target: Fc-GDF15 Mutant 3 (R4N/G6T) (human); assay: as above
[6] = target: T1, Fc-GDF15 WT (knob-Fc-(G4S)5-GDF15 paired with hole-Fc, wildtype GDF15) (human); assay: as above
[7] = target: Fc-GDF15 Mutant 2A (A3N/N5T/L36H) (human); assay: as above
[8] = target: Fc-GDF15 Mutant 2 (A3N/N5T) (human); assay: as above
[9] = target: Fc-GDF15 Mutant 2C (A3N/N5T/V98I) (human); assay: SPR; Biacore T200, 37 °C; anti-human IgG amine-coupled on a CM4 chip captures Fc-GDF15; GFRAL ECD injected in two-fold dilutions (human 25 to 1.56 nM, murine 100 to 6.25 nM), 60 s association, 120 s dissociation; double referencing, 1:1 Langmuir model; duplicate
[10] = target: Fc-GDF15 Mutant 3C (R4N/G6T, V98I) (human); assay: as above
[11] = target: Fc-GDF15 Mutant 3A (R4N/G6T, L36H) (human); assay: as above
[12] = target: Fc-GDF15 Mutant 2A (A3N/N5T, L36H) (human); assay: as above
[13] = target: Fc-GDF15 Mutant 3 (R4N/G6T) (human); assay: as above
[14] = target: T2, Fc-GDF15 WT (wildtype Fc-GDF15 control; knob-Fc-(G4S)5-GDF15 paired with hole-Fc) (human); assay: as above
[15] = target: Fc-GDF15 Mutant 3B (R4N/G6T, L36R) (human); assay: as above
[16] = target: Fc-GDF15 Mutant 2 (A3N/N5T) (human); assay: as above

Binder	koff [1]	kon [1]	koff [2]	kon [2]	koff [3]	kon [3]	koff [4]	kon [4]	koff [5]	kon [5]	koff [6]	kon [6]	koff [7]	kon [7]	koff [8]	kon [8]	Kd [9]	Kd [10]	Kd [11]	Kd [12]	other results
human GFRAL extracellular domain (ECD), residues 19-351 (domain or fragment) SQTNNCTYLREQCLRDANGCKHAWRVMEDACNDSDPGDPCKMRNSSYCNLSIQYLVESNFQFKECLCTDDFYCTVNKLLGKKCINKSDNVKEDKFKWNLTTRSHHGFKGMWSCLEVAEACVGDVVCNAQLASYLKACSANGNPCDLKQCQAAIRFFYQNIPFNIAQMLAFCDCAQSDIPCQQSKEALHSKTCAVNMVPPPTCLSVIRSCQNDELCRRHYRTFQSKCWQRVTRKCHEDENCISTLSKQDLTCSGSDDCKAAYIDILGTVLQVQCTCRTITQSEESLCKIFQHMLHRKSCFNYPTLSNVKGMALYTRKHANKITLTGFHSPFNGE	0.0574 s⁻¹	1.03e+07 M⁻¹ s⁻¹	0.0283 s⁻¹	7.72e+06 M⁻¹ s⁻¹	0.0402 s⁻¹	6.61e+06 M⁻¹ s⁻¹	0.0571 s⁻¹	1.05e+07 M⁻¹ s⁻¹	0.113 s⁻¹	1e+07 M⁻¹ s⁻¹	0.12 s⁻¹	1.07e+07 M⁻¹ s⁻¹	0.039 s⁻¹	6.47e+06 M⁻¹ s⁻¹	0.1 s⁻¹	1e+07 M⁻¹ s⁻¹					
Soluble human GFRAL extracellular domain (ECD) (receptor) SQTNNCTYLREQCLRDANGCKHAWRVMEDACNDSDPGDPCKMRNSSYCNLSIQYLVESNFQFKECLCTDDFYCTVNKLLGKKCINKSDNVKEDKFKWNLTTRSHHGFKGMWSCLEVAEACVGDVVCNAQLASYLKACSANGNPCDLKQCQAAIRFFYQNIPFNIAQMLAFCDCAQSDIPCQQSKEALHSKTCAVNMVPPPTCLSVIRSCQNDELCRRHYRTFQSKCWQRVTRKCHEDENCISTLSKQDLTCSGSDDCKAAYIDILGTVLQVQCTCRTITQSEESLCKIFQHMLHRKSCFNYPTLSNVKGMALYTRKHANKITLTGFHSPFNGE																	5.52 nM	5.44 nM	6.09 nM	6.03 nM	Kd [13]: 11.2 nM; Kd [14]: 11 nM; Kd [15]: 3.68 nM; Kd [16]: 10 nM
mouse GFRAL extracellular domain (ECD), residues 19-350 (domain or fragment) SQTNDCAHLIQKCLIDANGCEQSWRSMEDTCLTPGDSCKINNSLHCNLSIQALVEKNFQFKECLCMDDLHCTVNKLFGKKCTNKTDNMEKDNKDKWNLTTTPFYHGFKQMQSCLEVTEACVGDVVCNAQLALYLKACSANGNLCDVKHCQAAIRFFYQNMPFNTAQMLAFCDCAQSDIPCQQSKETLHSKPCALNIVPPPTCLSVIHTCRNDELCRTHYRTFQTECWPHITGKCHEDETCISMLGKQDLTCSGSESCRAAFLGTFGTVLQVPCACRGVTQAEEHVCMIFQHMLHSKSCFNYPTPNVKDISSYEKKNSKEITLTGFNSFFNGE	0.179 s⁻¹	1.88e+06 M⁻¹ s⁻¹	0.105 s⁻¹	1.26e+06 M⁻¹ s⁻¹	0.2 s⁻¹	1.13e+06 M⁻¹ s⁻¹	0.188 s⁻¹	1.69e+06 M⁻¹ s⁻¹	0.474 s⁻¹	1.59e+06 M⁻¹ s⁻¹	0.364 s⁻¹	1.61e+06 M⁻¹ s⁻¹	0.16 s⁻¹	865000 M⁻¹ s⁻¹	0.372 s⁻¹	1.52e+06 M⁻¹ s⁻¹					
Soluble mouse GFRAL extracellular domain (ECD) (receptor) SQTNDCAHLIQKCLIDANGCEQSWRSMEDTCLTPGDSCKINNSLHCNLSIQALVEKNFQFKECLCMDDLHCTVNKLFGKKCTNKTDNMEKDNKDKWNLTTTPFYHGFKQMQSCLEVTEACVGDVVCNAQLALYLKACSANGNLCDVKHCQAAIRFFYQNMPFNTAQMLAFCDCAQSDIPCQQSKETLHSKPCALNIVPPPTCLSVIHTCRNDELCRTHYRTFQTECWPHITGKCHEDETCISMLGKQDLTCSGSESCRAAFLGTFGTVLQVPCACRGVTQAEEHVCMIFQHMLHSKSCFNYPTPNVKDISSYEKKNSKEITLTGFNSFFNGE																	95.8 nM	124 nM	178 nM	186 nM	Kd [13]: 300 nM; Kd [14]: 230 nM; Kd [15]: 82.8 nM; Kd [16]: 245 nM
